The text below walks through data of the supplement of paper PMC10126150.

± gives the standard deviation of the averaged measurements.

This data set has as its system ATP. In words: switch fluorescence ratio, 500 uM ATP over buffer (Cy3 cluster intensity, sum of 5 cycles each) (fold (ratio)); higher = stronger signal-on switching upon ATP binding; sequences stand for … in TCGTCGGCAGCGTCAGATGTGTATAAGAGACAGTTTTTTTTTTTTTTTTTTTTTTTTT…TC. Conditions: aptamer strand: ATP DNA aptamer (quencher-CACCTGGGGGAGTATTGCGGAGGAAGG + anchor), 100 nM annealed; ATP concentration: 500 uM. The method in brief: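 Values give the fluorescence ratio for each switch-domain sequence, averaged from per-cluster ratios of summed target-cycle to summed buffer-cycle Cy3 intensity. The Cy3-labelled switching-strand clusters sat on a modified Illumina MiSeq flow-cell, were annealed to 100 nM quencher-labelled ATP aptamer, and were imaged in selection buffer, then after 15 min with 500 uM ATP at 22 °C. Five cycles ran with NaOH stripping and re-annealing between them, and clusters outside 100-1000 RFU were excluded.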
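Note: ATP exposure 15 min at 22 °C before imaging.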

Take AAACAGCGTA: the switch fluorescence ratio was 1.01 ± 0.032.

On to GTATTTAGGA, for which the switch fluorescence ratio came out at 0.992 ± 0.011.

Consider TTCTAGTCTA, for which the switch fluorescence ratio stood at 0.987 ± 0.01.

Regarding AAATTGGGGG, the switch fluorescence ratio was determined as 1.02 ± 0.075.

For the sequence CCGGGTTGTA, the switch fluorescence ratio amounted to 1.02 ± 0.046.

For ATAGGGTTGC, the switch fluorescence ratio was 1.01 ± 0.014.

Regarding AGGGGGGAGC, the switch fluorescence ratio was 1.01 ± 0.029.

As for TTTTTTGGTT, the switch fluorescence ratio turned out to be 0.997 ± 0.026.

Regarding GATGTGGGGT, the switch fluorescence ratio was found to be 0.987 ± 0.012.

For ATCATTAGAA, the switch fluorescence ratio was 0.976 ± 0.031.

As to TTGGAAGTAG, the switch fluorescence ratio worked out at 0.9688 ± 0.0029.

On to GAGGAAGATT, for which the switch fluorescence ratio is 1.02 ± 0.021.

Take GGTTTGACGG: the switch fluorescence ratio stood at 1.01 ± 0.053.

Regarding GGTATGAGAC, the switch fluorescence ratio was 1.01 ± 0.044.

On to GTGTTGGGGG, for which the switch fluorescence ratio was found to be 0.984 ± 0.039.

For the sequence GGTTTTATGC, the switch fluorescence ratio stood at 0.985 ± 0.0053.

Turning to CGAAAACGGT, the switch fluorescence ratio was 0.999 ± 0.048.

For the sequence GGATGGCTTC, the switch fluorescence ratio was found to be 0.9987 ± 0.0023.

For the sequence TGAGTGCTGC, the switch fluorescence ratio stood at 1.08 ± 0.075.

Consider GCTTATAATG, for which the switch fluorescence ratio was 0.997 ± 0.031.

Turning to GTGCGGAGTG, the switch fluorescence ratio was 0.97 ± 0.041.

On to ATGGTATCGG, for which the switch fluorescence ratio came to 1.026 ± 0.0074.

In the case of AGGGGTATTA, the switch fluorescence ratio turned out to be 1.002 ± 0.01.

For ATAGGAGTAT, the switch fluorescence ratio worked out at 1.01 ± 0.026.

In the case of AAAGGATAAT, the switch fluorescence ratio was 1.01 ± 0.0077.

Consider GACTATTAGA, for which the switch fluorescence ratio worked out at 0.9918 ± 0.0057.

Consider ACTTGGACTG, for which the switch fluorescence ratio came out at 1.03 ± 0.042.

In the case of CGTGACAGGG, the switch fluorescence ratio was 1.04 ± 0.058.

As to CAGCGGCGGA, the switch fluorescence ratio is 0.981 ± 0.029.

Turning to TTTGTATGG, the switch fluorescence ratio stood at 0.9819 ± 0.0042.

In the case of TATATGATTA, the switch fluorescence ratio is 0.973 ± 0.016.

In the case of TAGGAGAGCC, the switch fluorescence ratio was 1.03 ± 0.017.

TACTCATGGG: the switch fluorescence ratio came out at 1.01 ± 0.035.

Regarding ACATGTGGAT, the switch fluorescence ratio came out at 0.996 ± 0.05.

Turning to GGTTAGATAG, the switch fluorescence ratio came out at 1.01 ± 0.035.

With AAGACACAGA, the switch fluorescence ratio came to 1.06 ± 0.035.

Regarding GACGGTTATT, the switch fluorescence ratio amounted to 1.002 ± 0.0036.

For ACTAGGGACA, the switch fluorescence ratio is 1.24 ± 0.028.

Regarding GCAGGAGGGG, the switch fluorescence ratio came to 0.965 ± 0.074.

Regarding TAACACGGGA, the switch fluorescence ratio is 1.037 ± 0.003.

Regarding ACGTTGCAGA, the switch fluorescence ratio turned out to be 1.006 ± 0.006.

As for CGGTCTAATT, the switch fluorescence ratio was determined as 0.9989 ± 0.0027.

For TCCTAATGGG, the switch fluorescence ratio is 0.985 ± 0.025.

With CATATCACAT, the switch fluorescence ratio amounted to 1.024 ± 0.0062.

Turning to GGCGGGGGCT, the switch fluorescence ratio was 0.99 ± 0.018.

As to GGTGAATGGG, the switch fluorescence ratio worked out at 1.01 ± 0.032.

Take GGTGATATGT: the switch fluorescence ratio was determined as 0.997 ± 0.018.

Consider TGTGGAGCTT, for which the switch fluorescence ratio turned out to be 1.07 ± 0.041.

Regarding ATGACTTACG, the switch fluorescence ratio stood at 1.08 ± 0.02.

In the case of CCGGTTCATT, the switch fluorescence ratio turned out to be 1.0368 ± 0.00072.

For TGGTTGGGTG, the switch fluorescence ratio worked out at 1.03 ± 0.059.

Take AAAGGGGGTT: the switch fluorescence ratio amounted to 1.04 ± 0.042.

Turning to GGTATAGGGT, the switch fluorescence ratio worked out at 0.981 ± 0.01.

With ATTTATGTGG, the switch fluorescence ratio worked out at 0.998 ± 0.02.

As for CATTGGACGT, the switch fluorescence ratio was found to be 1.029 ± 0.0063.

In the case of AGAGGTGACA, the switch fluorescence ratio is 0.999 ± 0.061.

For TGCTTTAAAC, the switch fluorescence ratio is 0.995 ± 0.032.

In the case of GGAAGAGGGG, the switch fluorescence ratio turned out to be 0.991 ± 0.016.

Consider GTTAGAAGTG, for which the switch fluorescence ratio is 0.9855 ± 0.006.

As to TGAGCATGCT, the switch fluorescence ratio turned out to be 1 ± 0.021.

With GCAGAGGGC, the switch fluorescence ratio is 1 ± 0.012.

GTATTCATTT: the switch fluorescence ratio was 0.982 ± 0.036.

For CGGCGGGCGA, the switch fluorescence ratio was determined as 1.03 ± 0.02.

TACGGAGATT: the switch fluorescence ratio stood at 1.01 ± 0.035.

As to TTCGTTTCGT, the switch fluorescence ratio came to 0.995 ± 0.014.

On to CCGGTGACGA, for which the switch fluorescence ratio was determined as 1.053 ± 0.0041.

Consider TGAGCTTGGG, for which the switch fluorescence ratio worked out at 0.99 ± 0.022.

Turning to CCTAGGGGTC, the switch fluorescence ratio worked out at 1.09 ± 0.028.

As to TGTGTCCTGC, the switch fluorescence ratio was determined as 0.965 ± 0.016.

As to CTATATTAGT, the switch fluorescence ratio stood at 1 ± 0.045.

As for CACCGACTTT, the switch fluorescence ratio amounted to 1.06 ± 0.0014.

Consider TTTTACTTTT, for which the switch fluorescence ratio turned out to be 1.01 ± 0.037.

Take AGTTAGGCAA: the switch fluorescence ratio was 1.01 ± 0.014.

With CATGCGGCTA, the switch fluorescence ratio was found to be 1.05 ± 0.044.

With AGGGCTGATA, the switch fluorescence ratio was found to be 1.009 ± 0.0013.

With GCGGGTAAGC, the switch fluorescence ratio amounted to 1.05 ± 0.012.

On to CGTAACTAGG, for which the switch fluorescence ratio worked out at 1.02 ± 0.03.

Regarding TTTTTCAGAT, the switch fluorescence ratio was determined as 1.03 ± 0.055.

Regarding TTCTTTGGAC, the switch fluorescence ratio stood at 1.0597 ± 0.0003.

As to TCCGGCGGGA, the switch fluorescence ratio turned out to be 1.26 ± 0.32.

For the sequence AAAGGGAGAT, the switch fluorescence ratio is 1.027 ± 0.0085.

Take CTTGAATGTG: the switch fluorescence ratio turned out to be 1 ± 0.013.

Turning to CGGGAGTTAA, the switch fluorescence ratio worked out at 1.01 ± 0.015.

In the case of CGATCCGGGC, the switch fluorescence ratio was determined as 1.05 ± 0.043.

Take GTGGGATGGA: the switch fluorescence ratio was found to be 0.978 ± 0.014.

Turning to CTCTGTGGTG, the switch fluorescence ratio amounted to 1.02 ± 0.048.

Take TGCCCGGGGG: the switch fluorescence ratio was found to be 1.24 ± 0.26.

In the case of ACAGTGTCTT, the switch fluorescence ratio was 1.01 ± 0.03.

With GGGGGTCCGC, the switch fluorescence ratio stood at 1.022 ± 0.0071.

For the sequence ACCTAGGACT, the switch fluorescence ratio came to 1.024 ± 0.0027.

For the sequence TGGCGTAGTT, the switch fluorescence ratio is 0.991 ± 0.037.

Take AAGTTATTGT: the switch fluorescence ratio is 1.21 ± 0.33.

On to AAGCGGTTCG, for which the switch fluorescence ratio stood at 0.98939 ± 0.0009.

As for GGGAATCGCT, the switch fluorescence ratio was found to be 0.973 ± 0.023.

As for ACCGGTACTC, the switch fluorescence ratio is 1.31 ± 0.047.

Regarding TATTACTTAG, the switch fluorescence ratio was determined as 1.062 ± 0.01.

GTTGCAAGAA: the switch fluorescence ratio was determined as 1.13 ± 0.06.

With GAGAATAATA, the switch fluorescence ratio was 0.988 ± 0.032.

With GGTGTTTGGA, the switch fluorescence ratio came to 0.986 ± 0.0099.

Regarding AAGAAGAGGA, the switch fluorescence ratio came out at 1 ± 0.011.

GCAAGGAGCG: the switch fluorescence ratio came out at 1.03 ± 0.039.

On to TTGTTGGTAC, for which the switch fluorescence ratio stood at 1.15 ± 0.23.

For the sequence TGGCTTTGGT, the switch fluorescence ratio is 0.9862 ± 0.0046.

Turning to TTGCACCATT, the switch fluorescence ratio came out at 1.05 ± 0.12.

As to GGGGACAAAT, the switch fluorescence ratio came out at 1.05 ± 0.0011.

For GAAACGATGT, the switch fluorescence ratio is 1.08 ± 0.05.

As to TAGCCTTAGA, the switch fluorescence ratio stood at 0.983 ± 0.02.

As to GGTTGTTACG, the switch fluorescence ratio worked out at 0.987 ± 0.033.

Take TTTTCGTGGT: the switch fluorescence ratio came to 0.984 ± 0.017.

Turning to AATAGCATTG, the switch fluorescence ratio is 0.972 ± 0.029.

For GCGGAATGCA, the switch fluorescence ratio was found to be 0.997 ± 0.025.

As to TAGATTGGAG, the switch fluorescence ratio is 0.987 ± 0.0072.

As to TGGTTGAATT, the switch fluorescence ratio turned out to be 0.992 ± 0.05.

With GGTGTATGGT, the switch fluorescence ratio amounted to 0.985 ± 0.018.

Consider TTTTATGTAA, for which the switch fluorescence ratio amounted to 0.996 ± 0.032.

On to AAGCAGGGGG, for which the switch fluorescence ratio came to 0.995 ± 0.018.

With ATCGAATAGC, the switch fluorescence ratio was 1.02 ± 0.034.

Turning to TCAAATCGGG, the switch fluorescence ratio was 0.999 ± 0.014.

For the sequence GGGAGGCGGT, the switch fluorescence ratio was found to be 1.01 ± 0.019.

As for TTTGATAACG, the switch fluorescence ratio was 0.987 ± 0.012.
